In general, stoichiometry N refers to the number of molecules, sites or subunits per partner or assembly. In general, Kd refers to a measure of binding affinity in units of concentration. Low values mean higher affinity, high ones lower affinity.

Data on two molecules can be found in PMC9886983, “Mechanism of regulation of the Helicobacter pylori Cagβ ATPase by CagZ” (Nature Communications, 2023).

Data set [1] concerns the molecule itself. Nature of the data set: crystal structure; apo-Cagβ1, 2.8 Å; crystals from 35% PEG400, 0.2 M Li2SO4, 0.1 M Tris 8.5 at 285 K; six protomers in the asymmetric unit.
Data set [2] has as its target T1, Cagβ-AAD1 (residues 289-488) E396A (Helicobacter pylori 26695, UniProt O25260 289-488, E396A).
T1 construct: Cagβ (HP0524, Cag5) of Helicobacter pylori 26695, residues 289-488, with E396A; also called Cagβ-AAD1_E396A; source: E. coli BL21 star (DE3), purified as the wild type but without TEV protease treatment; not shown: His6, N-terminal, kept; TrxA, N-terminal, kept
T1 sequence: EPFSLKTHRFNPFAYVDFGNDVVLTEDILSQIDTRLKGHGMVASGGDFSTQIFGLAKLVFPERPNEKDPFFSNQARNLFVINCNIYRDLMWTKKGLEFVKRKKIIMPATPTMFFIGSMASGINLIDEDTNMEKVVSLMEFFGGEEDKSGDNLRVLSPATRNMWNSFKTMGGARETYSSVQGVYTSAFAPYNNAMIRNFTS
Nature of the data set: ITC; ITC-200, 25 °C, 20 mM Tris pH 8.0, 150 mM NaCl; Cagβ proteins (20 µM) in the cell, CagZ proteins (200 µM) in the syringe. As to conditions: both partners purified. (In general: ITC needs no label: the signal is the heat of the interaction.)

The target in data set [3] is T2, Cagβ-AAD2 (residues 289-505) (Helicobacter pylori 26695, UniProt O25260 289-505).
T2 construct: Cagβ (HP0524, Cag5) of Helicobacter pylori 26695, residues 289-505, holds the all-alpha domain (AAD); also called Cagβ-AAD2 (289-505); source: E. coli BL21 star (DE3), purified (Ni-NTA, TEV, second Ni-NTA, SEC); not shown: His6, N-terminal, cleaved; TrxA, N-terminal, cleaved
T2 sequence: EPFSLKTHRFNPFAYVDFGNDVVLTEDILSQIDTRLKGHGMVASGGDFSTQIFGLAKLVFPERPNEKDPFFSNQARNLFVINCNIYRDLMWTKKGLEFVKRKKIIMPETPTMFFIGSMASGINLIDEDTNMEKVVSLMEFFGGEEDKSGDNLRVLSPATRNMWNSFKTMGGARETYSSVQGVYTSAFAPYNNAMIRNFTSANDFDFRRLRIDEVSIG
Described as above. The conditions noted are these: both partners purified.

For another data set, the target named is T3, Cagβ2 (residues 243-748) (Helicobacter pylori 26695, UniProt O25260 243-748).
T3 construct: Cagβ (HP0524, Cag5) of Helicobacter pylori 26695, residues 243-748; also called Cagβ2 (243-748); source: E. coli BL21 star (DE3), purified (Ni-NTA, TEV, second Ni-NTA, SEC); not shown: His6, N-terminal, cleaved; TrxA, N-terminal, cleaved
T3 sequence: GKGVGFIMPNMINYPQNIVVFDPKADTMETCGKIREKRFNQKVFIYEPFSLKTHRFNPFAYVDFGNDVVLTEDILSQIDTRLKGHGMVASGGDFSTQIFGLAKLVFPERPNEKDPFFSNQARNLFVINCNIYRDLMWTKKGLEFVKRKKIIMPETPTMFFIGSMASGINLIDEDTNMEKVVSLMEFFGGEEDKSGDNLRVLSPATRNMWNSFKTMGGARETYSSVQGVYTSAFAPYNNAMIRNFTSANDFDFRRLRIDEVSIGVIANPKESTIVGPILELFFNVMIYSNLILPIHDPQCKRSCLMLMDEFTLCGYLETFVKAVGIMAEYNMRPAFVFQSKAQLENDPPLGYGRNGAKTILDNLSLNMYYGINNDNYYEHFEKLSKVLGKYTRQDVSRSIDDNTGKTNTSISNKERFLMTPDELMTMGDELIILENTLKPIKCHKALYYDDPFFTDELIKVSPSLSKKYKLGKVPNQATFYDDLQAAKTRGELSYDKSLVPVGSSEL
The data set is described as above. As to conditions: both partners purified.

Data set [4] deals with T4, Cagβ1 (soluble region of Cagβ, residues 166-748) (Helicobacter pylori 26695, UniProt O25260 166-748).
T4 construct: Cagβ (HP0524, Cag5; VirD4 homolog) of Helicobacter pylori 26695, residues 166-748, soluble region without the transmembrane region; also called Cagβ1(166-748); Cagβ-WT; source: E. coli BL21 star (DE3), purified (Ni-NTA, TEV, second Ni-NTA, SEC); not shown: His6, N-terminal, cleaved; TrxA, N-terminal, cleaved
T4 sequence: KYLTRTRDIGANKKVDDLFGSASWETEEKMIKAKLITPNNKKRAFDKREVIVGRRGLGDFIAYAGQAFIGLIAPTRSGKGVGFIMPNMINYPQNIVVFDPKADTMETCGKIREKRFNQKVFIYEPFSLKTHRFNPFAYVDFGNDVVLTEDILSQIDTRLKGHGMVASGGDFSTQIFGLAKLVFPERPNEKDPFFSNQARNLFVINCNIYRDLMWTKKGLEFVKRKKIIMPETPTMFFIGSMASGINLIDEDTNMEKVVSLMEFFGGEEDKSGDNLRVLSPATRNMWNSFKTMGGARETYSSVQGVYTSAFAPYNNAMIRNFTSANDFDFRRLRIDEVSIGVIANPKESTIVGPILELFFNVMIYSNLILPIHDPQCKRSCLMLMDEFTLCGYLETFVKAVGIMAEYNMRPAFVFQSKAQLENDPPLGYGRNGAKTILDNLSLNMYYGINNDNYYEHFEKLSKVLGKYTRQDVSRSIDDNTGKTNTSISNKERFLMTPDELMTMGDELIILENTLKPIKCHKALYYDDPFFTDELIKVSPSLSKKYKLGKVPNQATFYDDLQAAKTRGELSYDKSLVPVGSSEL
The description is as above. The conditions noted are these: both partners purified.

B1: Cagβ1 (soluble region of Cagβ, residues 166–748) (domain or fragment)
chain: T4 sequence
notes: Cagβ (HP0524, Cag5; VirD4 homolog) of H. pylori 26695, residues 166-748, the soluble (cytosolic) region; Dynamic hexamer; monomer at low concentration; also called apo-Cagβ1; HP0524; source: E. coli BL21 star (DE3), purified (Ni-NTA, TEV cleavage, second Ni-NTA, SEC); also co-expressed with CagZ-pET-28a and co-purified; not shown: His6, N-terminal, cleaved; TrxA, N-terminal, cleaved
As to B1, in data set [1], the “stoichiometry N” value stood at 6.

B2: CagZ (residues 2-199), wild type (natural protein)
chain: ELGFNETERQKILDSNKSLMGNANEVRDKFIQNYASSLKDSNDPQDFLRRVQELRINMQKNFISFDVYYNYLNNLVLASYNRCKQEKTFAESTIKNELTLGEFVAEISDNFNNFMCDEVARISDLVASYLPREYLPPFIDGNMMGVAFQILGIDDFGRKLNEIVQDIGTKYIILSKNKTYLTSLERAKLITQLKLNLE
notes: CagZ of Helicobacter pylori 26695, residues 2-199; also called CagZ-WT; source: E. coli BL21 star (DE3), purified (Ni-NTA, TEV, second Ni-NTA, SEC); not shown: His6, N-terminal, cleaved; TrxA, N-terminal, cleaved
Turning to B2, the Kd in data set [2] was ~50 nM; in data set [3] it was 20 nM; with Cagβ2 (residues 243-748), 20 nM; in data set [4], 50 nM.
